Results as given in US7183387 (Genentech, dated 2007).

T1: human FcγRIIA-R131 α subunit extracellular domain-6His-GST fusion (human, UniProt P12318 34-217)
T1 construct: also called FcγRIIA-Arg131; not shown: glutathione S-transferase (GST)
T1 sequence: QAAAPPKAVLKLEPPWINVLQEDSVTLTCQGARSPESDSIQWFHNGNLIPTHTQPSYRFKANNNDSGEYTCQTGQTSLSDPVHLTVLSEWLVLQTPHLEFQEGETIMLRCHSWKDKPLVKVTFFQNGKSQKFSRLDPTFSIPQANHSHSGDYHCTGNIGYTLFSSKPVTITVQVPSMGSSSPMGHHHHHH

T2: human FcγRIIB α subunit extracellular domain-6His-GST fusion (human, UniProt P31994 43-217)
T2 construct: not shown: glutathione S-transferase (GST)
T2 sequence: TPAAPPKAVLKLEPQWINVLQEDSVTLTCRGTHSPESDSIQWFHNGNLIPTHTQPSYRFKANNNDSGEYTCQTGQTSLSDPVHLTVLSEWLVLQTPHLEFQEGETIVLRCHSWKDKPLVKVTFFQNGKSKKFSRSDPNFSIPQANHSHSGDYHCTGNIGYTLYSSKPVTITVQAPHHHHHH


Experiments:
Test in all cases: ELISA, IgG:IgE hexamers on receptor-GST
[1] = target: T1, human FcγRIIA-R131 α subunit …
[2] = target: T2, human FcγRIIB α subunit extracellular …
[3] = target: T3, human FcγRIIIA-F158 α subunit extracellular domain-6His-GST fusion (human, UniProt P08637 17-208)
T3 construct: also called FcγRIIIA-Phe158; not shown: glutathione S-transferase (GST)
T3 sequence (P08637 other isoform, or with tags, fused parts or gaps, form in doubt): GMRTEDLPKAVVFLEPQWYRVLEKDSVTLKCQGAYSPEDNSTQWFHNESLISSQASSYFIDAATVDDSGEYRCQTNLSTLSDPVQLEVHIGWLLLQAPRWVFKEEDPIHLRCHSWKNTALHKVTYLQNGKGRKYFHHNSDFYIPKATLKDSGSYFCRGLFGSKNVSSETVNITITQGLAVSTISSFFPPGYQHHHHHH

ratio to native IgG1 [1] | ratio to native IgG1 [2] | ratio to native IgG1 [3] | Binder
1.01 | 0.95 | 0.84 | E27 IgG1 variant E294(311)Q (antibody, also called IG2 173) heavy: not shown light: DIQLTQSPSSLSASVGDRVTITCRASKPVDGEGDSYLNWYQQKPGKAPKLLIYAASYLESGVPSRFSGSGSGTDFTLTISSLQPEDFATYYCQQSHEDPYTFGQGTKVEIKRTVAAPSVFIFPPSDEQLKSGTASVVCLLNNFYPREAKVQWKVDNALQSGNSQESVTEQDSKDSTYSLSSTLTLSKADYEKHKVYACEVTHQGLSSPVTKSFNRGEC
0.37 | 0.26 | 0.14 | E27 IgG1 variant E294(311)D (antibody, also called IG2 174) heavy: not shown light: DIQLTQSPSSLSASVGDRVTITCRASKPVDGEGDSYLNWYQQKPGKAPKLLIYAASYLESGVPSRFSGSGSGTDFTLTISSLQPEDFATYYCQQSHEDPYTFGQGTKVEIKRTVAAPSVFIFPPSDEQLKSGTASVVCLLNNFYPREAKVQWKVDNALQSGNSQESVTEQDSKDSTYSLSSTLTLSKADYEKHKVYACEVTHQGLSSPVTKSFNRGEC
0.87 | 0.76 | 1.05 | E27 IgG1 variant E333(352)G (antibody, also called IG2 178) heavy: not shown light: DIQLTQSPSSLSASVGDRVTITCRASKPVDGEGDSYLNWYQQKPGKAPKLLIYAASYLESGVPSRFSGSGSGTDFTLTISSLQPEDFATYYCQQSHEDPYTFGQGTKVEIKRTVAAPSVFIFPPSDEQLKSGTASVVCLLNNFYPREAKVQWKVDNALQSGNSQESVTEQDSKDSTYSLSSTLTLSKADYEKHKVYACEVTHQGLSSPVTKSFNRGEC
0.9 | 0.88 | 0.37 | E27 IgG1 variant E293(310)D (antibody) heavy: not shown light: DIQLTQSPSSLSASVGDRVTITCRASKPVDGEGDSYLNWYQQKPGKAPKLLIYAASYLESGVPSRFSGSGSGTDFTLTISSLQPEDFATYYCQQSHEDPYTFGQGTKVEIKRTVAAPSVFIFPPSDEQLKSGTASVVCLLNNFYPREAKVQWKVDNALQSGNSQESVTEQDSKDSTYSLSSTLTLSKADYEKHKVYACEVTHQGLSSPVTKSFNRGEC
1.13 | 1.31 | 0.72 | E27 IgG1 variant E293(310)K (antibody) heavy: not shown light: DIQLTQSPSSLSASVGDRVTITCRASKPVDGEGDSYLNWYQQKPGKAPKLLIYAASYLESGVPSRFSGSGSGTDFTLTISSLQPEDFATYYCQQSHEDPYTFGQGTKVEIKRTVAAPSVFIFPPSDEQLKSGTASVVCLLNNFYPREAKVQWKVDNALQSGNSQESVTEQDSKDSTYSLSSTLTLSKADYEKHKVYACEVTHQGLSSPVTKSFNRGEC

The remaining lines, values behind:

Binder | ratio to native IgG1 [1] | ratio to native IgG1 [2] | ratio to native IgG1 [3]
E27 IgG1 variant E272(285)N (antibody, also called IG2 224) heavy: not shown light: DIQLTQSPSSLSASVGDRVTITCRASKPVDGEGDSYLNWYQQKPGKAPKLLIYAASYLESGVPSRFSGSGSGTDFTLTISSLQPEDFATYYCQQSHEDPYTFGQGTKVEIKRTVAAPSVFIFPPSDEQLKSGTASVVCLLNNFYPREAKVQWKVDNALQSGNSQESVTEQDSKDSTYSLSSTLTLSKADYEKHKVYACEVTHQGLSSPVTKSFNRGEC | 0.43 | 0.23 | 0.5
E27 IgG1 variant E283(300)N (antibody, also called IG2 228) heavy: not shown light: DIQLTQSPSSLSASVGDRVTITCRASKPVDGEGDSYLNWYQQKPGKAPKLLIYAASYLESGVPSRFSGSGSGTDFTLTISSLQPEDFATYYCQQSHEDPYTFGQGTKVEIKRTVAAPSVFIFPPSDEQLKSGTASVVCLLNNFYPREAKVQWKVDNALQSGNSQESVTEQDSKDSTYSLSSTLTLSKADYEKHKVYACEVTHQGLSSPVTKSFNRGEC | 1.18 | 1.28 | 0.94
E27 IgG1 variant E318(337)K (antibody) heavy: not shown light: DIQLTQSPSSLSASVGDRVTITCRASKPVDGEGDSYLNWYQQKPGKAPKLLIYAASYLESGVPSRFSGSGSGTDFTLTISSLQPEDFATYYCQQSHEDPYTFGQGTKVEIKRTVAAPSVFIFPPSDEQLKSGTASVVCLLNNFYPREAKVQWKVDNALQSGNSQESVTEQDSKDSTYSLSSTLTLSKADYEKHKVYACEVTHQGLSSPVTKSFNRGEC | 1.03 | 1.08 | 0.72
E27 IgG1 variant E293(310)Q (antibody) heavy: not shown light: DIQLTQSPSSLSASVGDRVTITCRASKPVDGEGDSYLNWYQQKPGKAPKLLIYAASYLESGVPSRFSGSGSGTDFTLTISSLQPEDFATYYCQQSHEDPYTFGQGTKVEIKRTVAAPSVFIFPPSDEQLKSGTASVVCLLNNFYPREAKVQWKVDNALQSGNSQESVTEQDSKDSTYSLSSTLTLSKADYEKHKVYACEVTHQGLSSPVTKSFNRGEC | 0.85 | 0.77 | 0.99
E27 IgG1 variant E272(285)Q (antibody, also called IG2 223) heavy: not shown light: DIQLTQSPSSLSASVGDRVTITCRASKPVDGEGDSYLNWYQQKPGKAPKLLIYAASYLESGVPSRFSGSGSGTDFTLTISSLQPEDFATYYCQQSHEDPYTFGQGTKVEIKRTVAAPSVFIFPPSDEQLKSGTASVVCLLNNFYPREAKVQWKVDNALQSGNSQESVTEQDSKDSTYSLSSTLTLSKADYEKHKVYACEVTHQGLSSPVTKSFNRGEC | 1.93 | 1.81 | 0.82
E27 IgG1 variant E283(300)D (antibody) heavy: not shown light: DIQLTQSPSSLSASVGDRVTITCRASKPVDGEGDSYLNWYQQKPGKAPKLLIYAASYLESGVPSRFSGSGSGTDFTLTISSLQPEDFATYYCQQSHEDPYTFGQGTKVEIKRTVAAPSVFIFPPSDEQLKSGTASVVCLLNNFYPREAKVQWKVDNALQSGNSQESVTEQDSKDSTYSLSSTLTLSKADYEKHKVYACEVTHQGLSSPVTKSFNRGEC | 1.14 | 1.23 | 0.95
E27 IgG1 variant E333(352)N (antibody) heavy: not shown light: DIQLTQSPSSLSASVGDRVTITCRASKPVDGEGDSYLNWYQQKPGKAPKLLIYAASYLESGVPSRFSGSGSGTDFTLTISSLQPEDFATYYCQQSHEDPYTFGQGTKVEIKRTVAAPSVFIFPPSDEQLKSGTASVVCLLNNFYPREAKVQWKVDNALQSGNSQESVTEQDSKDSTYSLSSTLTLSKADYEKHKVYACEVTHQGLSSPVTKSFNRGEC | 0.59 | 0.52 | 0.56
E27 IgG1 variant E283(300)S (antibody, also called IG2 227) heavy: not shown light: DIQLTQSPSSLSASVGDRVTITCRASKPVDGEGDSYLNWYQQKPGKAPKLLIYAASYLESGVPSRFSGSGSGTDFTLTISSLQPEDFATYYCQQSHEDPYTFGQGTKVEIKRTVAAPSVFIFPPSDEQLKSGTASVVCLLNNFYPREAKVQWKVDNALQSGNSQESVTEQDSKDSTYSLSSTLTLSKADYEKHKVYACEVTHQGLSSPVTKSFNRGEC | 1.03 | 1.07 | 0.85
E27 IgG1 variant E283(300)Q (antibody, also called IG2 226) heavy: not shown light: DIQLTQSPSSLSASVGDRVTITCRASKPVDGEGDSYLNWYQQKPGKAPKLLIYAASYLESGVPSRFSGSGSGTDFTLTISSLQPEDFATYYCQQSHEDPYTFGQGTKVEIKRTVAAPSVFIFPPSDEQLKSGTASVVCLLNNFYPREAKVQWKVDNALQSGNSQESVTEQDSKDSTYSLSSTLTLSKADYEKHKVYACEVTHQGLSSPVTKSFNRGEC | 1.12 | 1.24 | 1.19
